Measurements from US20230331852A1 (OSE IMMUNOTHERAPEUTICS, published 2023).

B1: chimeric anti-CLEC-1A antibody 15E3 (antibody, human IgG4 S228P, kappa, V domains shown)
VH: QVQLQQSGPELVKPGASVKMSCKASGFTFTDYVIAWVKVRTGQGLEWIGEIYPGSGSIYYNEKFKGKATLTADKSSNTAYMQLSSLTSEDSAVYFCASSTVVAFDYWGQGTTLTVSS
VL: EIVLTQSPTTLAASPGEKIIITCSDSSSISSNYLHWYQQKPGFSPKLLIYGTSNLASGVPARFSGSGSGTTYSLTIGTMEAEDVATYYCQQGSSIPRTFGGGTKLEIKR
notes: also called 15E3chim; 15E3-VHwt-FcG4m / 15E3-VLwt-CLhk
B2: chimeric anti-CLEC-1A antibody 5D1 (antibody, human IgG4 S228P, kappa, V domains shown)
VH: QVQLKESGPGLVAPSQSLSITCTISGFSLTSYGVHWVRQPPGKGLEWLVVIWSDGSTIYNSALKSRLSISKDNSKSQVFLKMNSLQTDDTAMYYCARHGGYYNYFDYWGQGTTLTVSS
VL: DIQMNQSPSSLSASLGDTITITCHASQNINVWLSWYQQKPGNIPKLLIYKASNLHTGVPSRFSGSGSGTGFTLTISSLQPEDIATYYCQQGQSYWTFGGGTKLEIKR
notes: also called 5D1chim; 5D1-VHwt-FcG4m / 5D1-VLwt-CLhk
B3: chimeric anti-CLEC-1A antibody 6C5 (antibody, human IgG4 S228P, kappa, V domains shown)
VH: QVQLQQSGPELVKPGASVKMSCKASGYTFTDYVISWVKQKTGQGLEWIGEIYPGSGNTYYNEKFKGKATLTADKSSSTAYIHLSSLTSEDSAVYFCAGGGSSHFDYWGQGTTLTVSS
VL: not shown
notes: also called 6C5chim; 6C5-VHwt-FcG4m / 6C5-VLwt-CLhk
B4: chimeric anti-CLEC-1A antibody 11H11 (antibody, human IgG4 S228P, kappa, V domains shown)
VH: QIHLVQSGPELKKPGETVKISCKASGYTFTNFGMNWVKQAPGKGLKWMGWINTNTGEPTYADDFKGRFAFSLETSASTAYLQINNLKNEDTATYFCARGAPAWFTYWGQGTLVTVSA
VL: DIQMTQSPASLSASVGETVTITCRATENIYSYLAWYQQKQGKSPQFLVYNAKTLAEGMPSRFSGSGSGTQFSLKINILQPEDFGTYYCQHHFGTPLTFGAGTKLELKR
notes: also called 11H11chim; 11H11-VHwt-FcG4m / 11H11-VLwt-CLhk

What was measured:
[1] = target: T1, recombinant human CLEC-1 protein with His Tag (#1704-CL R&D Systems) (human, UniProt Q8NC01 74-280); assay: ELISA on immobilised His-CLEC1 (from FIGURE 12)
T1 construct: Bought protein; also called His-CLEC1; His Clec-1; not shown: His tag
T1 sequence: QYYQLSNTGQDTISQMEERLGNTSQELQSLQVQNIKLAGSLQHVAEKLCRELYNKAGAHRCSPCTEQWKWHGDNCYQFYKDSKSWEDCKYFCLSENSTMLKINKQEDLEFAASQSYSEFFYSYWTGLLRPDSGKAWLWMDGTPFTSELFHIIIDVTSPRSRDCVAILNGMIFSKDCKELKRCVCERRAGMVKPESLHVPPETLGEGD
Experimental: (§1) Method: The binding activity of the anti-hCLEC1 antibodies was assessed by ELISA (Enzyme-linked immunosorbent assay). […] A second ELISA assays was performed, like above, with immobilization of CLEC1-Fc (OSE Immunotherapeutics) at 2 μg/ml. A third ELISA assays was performed to see the cross-reactivity with mouse CLEC1. Like above, ELISA was made with immobilization of mouse Fc-CLEC1 (OSE Immunotherapeutics) at 2 μg/ml in carbonate buffer instead of His-Clec. Purified antibodies were added at different concentrations to measure binding. […] Control antibody is a commercial anti-CLEC-1A antibody.

[2] = target: T2, Fc-CLEC1 labelled with Alexa Fluor 488 (human, Alexa Fluor 488 label (sites not given)); assay: FACS competition: blocks Fc-CLEC1-A488 (10 nM) binding to CLEC-1 ligand on permeabilised Raji cells; IC50 median
T2 construct: also called Fc-CLEC1-A488; Alexa488-Fc-Clec-1
T2 chain: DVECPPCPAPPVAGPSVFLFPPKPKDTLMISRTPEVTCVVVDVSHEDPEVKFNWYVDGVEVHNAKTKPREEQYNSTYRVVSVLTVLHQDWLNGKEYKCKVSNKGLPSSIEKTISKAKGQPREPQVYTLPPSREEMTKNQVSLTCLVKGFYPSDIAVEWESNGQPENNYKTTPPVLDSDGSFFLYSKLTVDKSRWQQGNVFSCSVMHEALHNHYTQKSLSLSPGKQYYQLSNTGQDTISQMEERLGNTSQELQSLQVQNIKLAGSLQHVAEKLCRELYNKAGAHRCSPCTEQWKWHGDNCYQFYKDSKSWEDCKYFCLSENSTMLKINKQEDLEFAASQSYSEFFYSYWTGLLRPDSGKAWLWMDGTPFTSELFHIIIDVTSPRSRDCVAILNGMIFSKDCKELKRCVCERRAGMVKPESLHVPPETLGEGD
Experimental: (§2) To measure competition, purified anti-Clec antibodies at different concentrations were pre-incubated in Perm Wash Buffer with Alexa488-Fc-Clec-1 for 15 min at room temperature. Pre-incubated mixes were then incubated on permeabilized and Fc-blocked Raji cells for 30 min on ice. Binding on cells were then fixed by PFA 2% in cold PBS for 10 min on ice and analyzed on CytoFlex cytofluorometer (Beckman Coulter France, Villepinte).
(§3) Methods. To measure competition on permeabilised Raji (CytoFix/cytoperm kit, BD Biosciences) which expressed CLEC1 ligand, Fc-CLEC1-labelled A488 which bound specifically to permeabilised Raji was used. To measure competition, Fc-CLEC1 labelled A488 at 10 nM or 20 nM was mixed with mouse anti-hCLEC1 at different concentrations for 15 min at RT then added on these cells for 30 min at 4° C. […] To measure competition on PMBC, we used human PBMC pre-treated by UV for 18 h to obtain apoptotic PBMC, which expressed CLEC1 ligand. Fc-CLEC1-labelled A488 bound specifically apoptotic UV-treated PBMC. To measure competition, Fc-CLEC1 labelled A488 at 10 nM was mixed with mouse anti-hCLEC1 at different concentrations for 15 min at RT then added on these cells for 30 min at 4° C.

[3] = target: T2, Fc-CLEC1 labelled with Alexa Fluor 488; assay: FACS competition: blocks Fc-CLEC1-A488 (10 nM) binding to CLEC-1 ligand on UV-treated PBMC
Experimental: (§4) Competition were also measured on UV pre-treated pro-apoptotic human PBMCs, which can also express the ligand after a treatment under UV radiation for 18 hours. After UV treatment, cells were first washed in cold-PSE and then blocked during 30 min at room temperature with human Fc-block 50-fold diluted in PSE, and then replaced on ice. Purified anti-Clec antibodies at different concentrations were pre-incubated with Alexa488-Fc-Clec-1 in PSE at different concentrations for 15 min at room temperature. Pre-incubated mixes were then incubated on Fc-blocked/SAB (#34005-100, Invitrogen, Illkirch, France) pro-apoptotic PBMCs for 30 min on ice. Binding on cells were then fixed by PFA 2% in cold PBS for 10 min on ice and analyzed on CytoFlex cytofluorometer (Beckman Coulter France, Villepinte).
as §3

[4] = target: T2, Fc-CLEC1 labelled with Alexa Fluor 488; assay: FACS competition: blocks Fc-CLEC1-A488 (10 nM) binding to CLEC-1 ligand on UV-treated PBMC; % binding
Experimental: as §4, §3

[5] = target: T1, recombinant human CLEC-1 protein with …; assay: ELISA on immobilised His-CLEC1, anti-human IgG peroxidase
[6] = target: T3, human CLEC-1A expressed on the cell membrane (human, UniProt Q8NC01 1-280); assay: flow cytometry on CHO-Clec-1 cells (from FIGURE 21)
T3 construct: Endogenous on human U266 myeloma cells, on monocyte-derived TGFb-DC and macrophages; on CHO cells after transduction with a Clec-1 expressing lentivirus; also called U266 CLEC1; CLEC-1A on U266 cells
T3 sequence: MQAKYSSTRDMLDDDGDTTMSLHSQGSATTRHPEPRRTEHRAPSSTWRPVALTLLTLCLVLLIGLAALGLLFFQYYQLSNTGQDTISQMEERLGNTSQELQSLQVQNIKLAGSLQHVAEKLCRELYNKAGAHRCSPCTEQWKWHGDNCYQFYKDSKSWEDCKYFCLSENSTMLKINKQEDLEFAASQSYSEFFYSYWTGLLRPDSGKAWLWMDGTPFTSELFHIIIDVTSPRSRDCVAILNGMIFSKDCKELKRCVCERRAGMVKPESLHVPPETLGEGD
Experimental: (§5) To measure binding of anti-clec on CHO-Clec-1 cells, human Fc Receptor Binding Inhibitor diluted at 1/200 (BD pharmingen; USA; reference 564220) was first added for 30 min at room-temperature to block human Fc receptors on CHO-Clec-1 cells to reduce background. Then, antibodies were incubated for 30 min at 4° C., and washed before stained 15 min at 4° C. with PE-labelled anti-human IgG Fc (Biolegend; USA; reference 409303). Samples were analyzed on citoflex (Beckman coulter)

[7] = target: T1, recombinant human CLEC-1 protein with …; assay: Blitz biolayer interferometry, His-CLEC1 on Ni-NTA biosensor, antibody at 20 ug/mL
[8] = target: T3, human CLEC-1A expressed on the cell …; assay: flow cytometry on U266 cells
Experimental: (§6) Method: To measure binding of anti-CLEC1 on human U266 cell lines (pre-blocked with Fcblock to blocking FcR), antibodies at different concentrations were incubated for 30 min at 4° C., and washed before stained 30 min at 4° C. with PE-labelled anti-human IgG (Biolegend; reference 409304). Samples were analyzed on Cytoflex cytofluorometer (Beckman Coulter). The MFI of anti-CLEC1 was compared between all anti-CLEC1 antibodies and percentage of stained cells was analysed in all conditions.

[9] = target: T1, recombinant human CLEC-1 protein with …; assay: BLI (Blitz), CLEC1-His on Ni-NTA biosensor, antibody at 20 ug/mL; chimeric antibody, FIG. 17
Experimental: Analysis was performed with a BLItz System (Fortébio, #C22-2 No 61010-1, Molecular Devices, San José, USA).
The affinity of the anti-hCLEC1 antibodies, was measured with Blitz system (Forté Bio, C22-2 No 61010-1).

[10] = target: T2, Fc-CLEC1 labelled with Alexa Fluor 488; assay: FACS competition: blocks Fc-CLEC1-A488 (10 nM) binding to CLEC-1 ligand on permeabilised Raji cells; % binding cells
Experimental: as §2, §3

[11] = target: T3, human CLEC-1A expressed on the cell …; assay: flow cytometry on U266 cells, PE anti-human IgG; % positive cells
Experimental: as §6

[12] = target: T3, human CLEC-1A expressed on the cell …; assay: flow cytometry on U266 cells, PE anti-human IgG; median fluorescence
Experimental: as §6

[13] = target: T3, human CLEC-1A expressed on the cell …; assay: flow cytometry on CHO-Clec-1 cells, revealed with anti-hFc-PE; % positive cells
Experimental: as §5

[14] = target: T3, human CLEC-1A expressed on the cell …; assay: flow cytometry on CHO-Clec-1 cells, revealed with anti-hFc-PE; median fluorescence
Experimental: as §5

[15] = target: T1, recombinant human CLEC-1 protein with …; assay: ELISA on immobilised His-CLEC1 (from FIGURE 14)
Experimental: as §1

Binder	EC50 [1] [µg/mL]	IC50 [2] [nM]	IC50 [3] [µg/mL]	IC50 (read off the curve) [4] [µg/mL]	EC50 (read off the curve) [5] [µg/mL]	EC50 [6] [µg/mL]	Kd [7] [nM]	koff [7] [s⁻¹]	kon [7] [M⁻¹ s⁻¹]	EC50 [8] [µg/mL]	Kd [9] [nM]	IC50 (read off the curve) [10] [nM]	EC50 (read off the curve) [11] [µg/mL]	EC50 (read off the curve) [12] [µg/mL]	EC50 (read off the curve) [13] [µg/mL]	EC50 (read off the curve) [14] [µg/mL]	EC50 [15] [µg/mL]
B1	0.0215	8.67	0.779	~1	~0.02	0.123	108	0.00169	15700	0.251							
B2	0.164	13.7	1.19	~0.8			17.4	0.0012	68900	0.0847	~10	~10	~0.06	~0.06			
B3	0.326	7.71	0.626			0.123	40.3	0.00179	44500	0.258			~0.2	~0.3	~0.1	~0.1	
B4		5.84				1.38	0.448	0.00019	188000	1.12							0.00846
